In PMC2873477, “Reconstruction of xylose utilization pathway and regulons in Firmicutes” (BMC Genomics, 2010):

Assays:
XylB = biological target: T1, XylB (Clostridium acetobutylicum, UniProt Q97FW4); test: coupled pyruvate kinase / lactate dehydrogenase assay, NADH at […] nm; format: biochemical; conditions: 50 mM Tris pH 7.5, 10 mM MgSO4, 1.2 mM ATP, 1 mM D-xylulose
T1 construct: full-length coding region, N-terminal His6 tag (pET28a), E. coli BL21(DE3), Ni-NTA purified
T1 sequence (Q97FW4 1-500): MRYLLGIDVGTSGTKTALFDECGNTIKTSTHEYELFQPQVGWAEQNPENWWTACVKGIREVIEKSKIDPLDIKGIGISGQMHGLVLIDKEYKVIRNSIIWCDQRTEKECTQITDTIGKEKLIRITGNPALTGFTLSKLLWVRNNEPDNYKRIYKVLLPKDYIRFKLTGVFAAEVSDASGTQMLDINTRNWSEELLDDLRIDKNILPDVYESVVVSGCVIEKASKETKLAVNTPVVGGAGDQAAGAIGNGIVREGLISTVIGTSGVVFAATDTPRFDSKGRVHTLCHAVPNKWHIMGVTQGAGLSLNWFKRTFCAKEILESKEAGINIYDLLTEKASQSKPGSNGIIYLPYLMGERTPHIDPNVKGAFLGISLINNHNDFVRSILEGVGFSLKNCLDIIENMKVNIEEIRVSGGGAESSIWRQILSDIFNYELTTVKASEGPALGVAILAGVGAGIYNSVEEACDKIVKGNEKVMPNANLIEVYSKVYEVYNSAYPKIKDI

[1] = biological target: T2, XylR (Clostridium acetobutylicum ATCC 824) (UniProt Q97D10); test: EMSA; conditions: 10 mM Tris pH 7.5, 50 mM KCl, 1 mM DTT, 2.5% glycerol, 5 mM MgCl2, 0.05% NP-40, 2 ug salmon sperm DNA in 20 ul, 28 C 20 min; 6% native PAGE 0.5x TBE at 4 C
T2 sequence: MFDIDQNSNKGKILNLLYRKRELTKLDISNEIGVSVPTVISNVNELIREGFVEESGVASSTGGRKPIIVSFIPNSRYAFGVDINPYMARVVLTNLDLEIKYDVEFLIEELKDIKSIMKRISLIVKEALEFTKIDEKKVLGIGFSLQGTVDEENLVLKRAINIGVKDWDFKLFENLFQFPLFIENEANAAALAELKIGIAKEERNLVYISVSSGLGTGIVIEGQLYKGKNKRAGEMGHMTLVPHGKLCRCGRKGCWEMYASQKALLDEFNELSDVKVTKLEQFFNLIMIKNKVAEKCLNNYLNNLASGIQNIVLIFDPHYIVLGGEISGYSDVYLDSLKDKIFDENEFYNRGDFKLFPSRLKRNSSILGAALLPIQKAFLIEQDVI

Compound	coupled pyruvate kinase / lactate dehydrogenase assay, NADH at 340 nm (XylB)	binding [1]
Nc1ncnc2c1ncn2[C@@H]1O[C@H](COP(=O)(O)OP(=O)(O)OP(=O)(O)O)[C@@H](O)[C@H]1O [ATP]	coupling the formation of ADP to the oxidation of NADH to NAD^+	–
AATCAAACCCCCTTAATTTTAAATAACTTTTTAAATATCCTTTAATAAGTCTATTTTACTTTTTTTACCTCCTACAGTCAATATGTTTTTGTAAACTTTTTCATTTTATTTATATAATGGCTTATATGGCACTGCATTTCACATAAAAATTGTAATAAAAAAAACTGCCCTTAAATTTTC (double strand) [xylB upstream fragment]	–	binds
CACCAACCTTAATCACTAGTATTTTACTTTACCTTCATATTGTACCATATACTATATCCCCACAAAAGCCTTTATAAAGTTGTTTTATAAAGTATATATACTATGTATATTTTTTCTTATATAGTTTTAATACAAAAATGAAGTAAAGATATCAATTATATATCTTTACTTCACTTACGT (double strand) [xylR upstream fragment]	–	binds
CTCCCCATATAATTTAAATTGGTTTTATTTAAAAAATATCTTACCAATATGATTTAAACTTCTCTAATAAATATATGTTTTTAAAGTTTGTTTAATAAGTTTTTTAGATAATCTACTCTTTAAATAAAAGCGCTCCTACTTTTAACTATTTATATATCTTTTATTTTAGGATAAGCTGAA (double strand) [CAC2611-xylA-II upstream fragment]	–	binds
